Key:
[1] = molecular target: T1, IL-33 mutant protein S60A (human, UniProt O95760 112-270); test: ELISA as Example 9; row S60A against WT-1
T1 construct: Prokaryotic expression; also called 560A
T1 chain: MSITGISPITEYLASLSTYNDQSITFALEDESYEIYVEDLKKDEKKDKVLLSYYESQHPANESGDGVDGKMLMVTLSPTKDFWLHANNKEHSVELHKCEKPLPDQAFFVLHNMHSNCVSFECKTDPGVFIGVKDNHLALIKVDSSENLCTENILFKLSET
Description: (§1) SA protein was diluted to 2 μg/mL to coat ELISA plate at 100 μL/well overnight at 4° C. The plate was washed with PBST (PBS containing 0.05% Tween20) for 3 times, and blocked with 2% BSA prepared in PBS at 200 μL/well, at room temperature for 2 h. After the plate was washed twice with PBST, IL-33-his-biotin protein was diluted to 1 μg/mL with 1% BSA prepared in PBST, and was added to ELISA plate at 100 μL/well. The plate was incubated at room temperature for 1 h, and each monoclonal antibody was diluted with 1% BSA prepared in PBST in a 3-fold gradient. The highest concentration of antibody was 10 μg/mL, and the antibody was diluted for 12 gradients. Each diluted monoclonal antibody was added to ELISA wells with 100 μL/well, and the plate was incubated at room temperature for 1 h. Each sample was added to duplicate wells in parallel. The plate was washed with PBST for 3 times, and HRP-anti human IgG Fc secondary antibody prepared with PBST was diluted at an appropriate ratio, and was added to ELISA wells at 100 μL/well. […] Each reaction solution was shaken uniformly and OD450 nm was read on a microplate reader. The data was analyzed and EC₅₀ was calculated.
(§2) Subsequently, according to the experimental method of Example 9, the affinity of the above mutant proteins to 874F7-Hu1 was determined, and IL-33 proteins (WT-1, WT-2, WT-3, and WT-4) without any mutation were set as controls.

[2] = molecular target: T2, IL-33 mutant protein P59A (human, UniProt O95760 112-270); test: ELISA as Example 9; row P59A against WT-1
T2 construct: Prokaryotic expression
T2 chain: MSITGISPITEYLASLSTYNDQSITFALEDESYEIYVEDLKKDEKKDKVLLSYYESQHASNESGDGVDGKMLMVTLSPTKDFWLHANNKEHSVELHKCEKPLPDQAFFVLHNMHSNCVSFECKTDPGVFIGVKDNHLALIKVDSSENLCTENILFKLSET
Description: as §1, §2

[3] = molecular target: T1, IL-33 mutant protein S60A; test: ELISA by the method of Example 9 with the IL-33 mutant protein on the plate, 874F7-Hu1 in serial dilution, HRP anti-human IgG Fc, absorbance 450 nm
[4] = molecular target: T3, IL-33 mutant protein K48A (human, UniProt O95760 112-270); test: ELISA as Example 9; row K48A against WT-2
T3 construct: Prokaryotic expression
T3 chain: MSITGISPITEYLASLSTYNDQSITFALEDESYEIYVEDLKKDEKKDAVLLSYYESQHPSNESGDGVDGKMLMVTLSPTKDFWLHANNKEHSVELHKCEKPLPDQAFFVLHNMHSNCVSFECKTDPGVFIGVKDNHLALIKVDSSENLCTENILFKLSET
Description: as §1, §2

[5] = molecular target: T4, IL-33 mutant protein H58A (human, UniProt O95760 112-270); test: ELISA as Example 9; row H58A against WT-1
T4 construct: Prokaryotic expression
T4 chain: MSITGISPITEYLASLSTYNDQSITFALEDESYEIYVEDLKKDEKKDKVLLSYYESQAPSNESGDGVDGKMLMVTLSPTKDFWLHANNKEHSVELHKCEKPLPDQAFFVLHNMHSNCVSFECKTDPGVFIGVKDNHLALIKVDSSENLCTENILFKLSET
Description: as §1, §2

[6] = molecular target: T5, IL-33 mutant protein E55A (human, UniProt O95760 112-270); test: ELISA as Example 9; row E55A
T5 construct: Prokaryotic expression
T5 chain: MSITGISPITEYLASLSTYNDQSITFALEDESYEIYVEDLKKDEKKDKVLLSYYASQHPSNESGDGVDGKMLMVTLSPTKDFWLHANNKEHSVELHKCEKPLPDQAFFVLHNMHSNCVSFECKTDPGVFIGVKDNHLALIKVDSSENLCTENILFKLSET
Description: as §1, §2

[7] = molecular target: T2, IL-33 mutant protein P59A; test: ELISA as Example 9; row P59A
Description: as §1, §2

[8] = molecular target: T6, IL-33 protein without any mutation (WT) (human, UniProt O95760 112-270); test: ELISA as Example 9; row WT-2, the reference itself
T6 construct: Control of the alanine scan (four runs WT-1 to WT-4); also called WT-1; WT-2
T6 sequence: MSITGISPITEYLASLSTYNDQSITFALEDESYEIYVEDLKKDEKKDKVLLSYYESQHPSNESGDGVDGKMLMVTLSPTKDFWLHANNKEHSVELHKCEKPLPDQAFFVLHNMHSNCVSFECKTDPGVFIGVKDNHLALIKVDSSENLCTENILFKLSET
Description: as §1, §2

[9] = molecular target: T7, IL-33 mutant protein D68A (human, UniProt O95760 112-270); test: ELISA as Example 9; row D68A
T7 construct: Prokaryotic expression
T7 chain: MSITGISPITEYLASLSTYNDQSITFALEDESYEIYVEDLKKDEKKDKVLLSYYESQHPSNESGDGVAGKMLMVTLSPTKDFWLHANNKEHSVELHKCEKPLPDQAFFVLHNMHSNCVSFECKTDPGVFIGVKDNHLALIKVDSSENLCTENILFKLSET
Description: as §1, §2

[10] = molecular target: T8, IL-33 mutant protein Y53A (human, UniProt O95760 112-270); test: ELISA as Example 9; row Y53A
T8 construct: Prokaryotic expression
T8 chain: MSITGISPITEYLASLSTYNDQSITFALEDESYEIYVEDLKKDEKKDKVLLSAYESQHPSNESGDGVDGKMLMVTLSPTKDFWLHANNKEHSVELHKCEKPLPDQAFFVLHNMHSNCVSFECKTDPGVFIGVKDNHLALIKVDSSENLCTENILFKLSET
Description: as §1, §2

B1: 874F7-Hu1 (antibody, human IgG4 S228P, kappa)
heavy: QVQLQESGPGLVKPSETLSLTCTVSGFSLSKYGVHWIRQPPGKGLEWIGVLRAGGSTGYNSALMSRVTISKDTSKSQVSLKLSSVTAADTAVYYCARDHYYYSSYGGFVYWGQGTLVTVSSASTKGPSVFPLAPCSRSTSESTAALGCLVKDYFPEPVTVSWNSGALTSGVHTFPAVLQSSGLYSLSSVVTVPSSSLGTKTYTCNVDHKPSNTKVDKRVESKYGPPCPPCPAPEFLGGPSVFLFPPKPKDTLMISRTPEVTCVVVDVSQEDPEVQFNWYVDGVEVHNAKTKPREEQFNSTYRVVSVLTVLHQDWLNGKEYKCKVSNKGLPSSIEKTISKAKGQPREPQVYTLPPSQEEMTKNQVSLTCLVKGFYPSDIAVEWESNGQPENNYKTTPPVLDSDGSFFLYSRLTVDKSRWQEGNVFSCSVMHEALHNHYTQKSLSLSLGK
light: DIQMTQSPSSVSASVGDRVTITCLASQTIGAWLAWYQQKPGKSPKLLIYAATRLADGVPSRFSGSGSGTDFTLTISSLQPEDFATYYCQQLDSSPYTFGQGTKVEIKRTVAAPSVFIFPPSDEQLKSGTASVVCLLNNFYPREAKVQWKVDNALQSGNSQESVTEQDSKDSTYSLSSTLTLSKADYEKHKVYACEVTHQGLSSPVTKSFNRGEC
notes: also called 874F7-Hul; humanized antibody 874F7-Hu1
[1]
  Affinity decline ratio: 23.2 fold
[2]
  Affinity decline ratio: 0.5 fold
[3]
  EC50 (read off the curve): ~1 nM
[4]
  Affinity decline ratio: 3.7 fold
[5]
  Affinity decline ratio: 1.9 fold
[6]
  EC50: 0.33 nM
[7]
  EC50: 0.12 nM
[8]
  Affinity decline ratio: 1 fold
[9]
  EC50: 0.22 nM
[10]
  EC50: 0.44 nM

Source: patent publication US20230399394A1 (SUNSHINE GUOJIAN PHARMACEUTICAL SHANGHAI, published 2023)
